± gives the uncertainty stated by the source.

This passage reports abundance fitness results from the Human Domainome abundance scans (Beltran et al. 2025).

The labels stand for the following.
B1: CD2-associated protein, residues 1 to 59; numbered along this chain, Q9Y5K6 (parent)
chain: MVDYIVEYDYDAVHDDELTIRVGEIIRNVKKLQEEGWLEGELNGRRGMFPDNFVKEIKR

Variants of B1 are the subject of the data set. Kind of data set: abundance fitness (aPCA) (normalised: wild type 0, dead -1); higher = more abundant; growth selection in yeast, the domain comes from the species named. The following applies: Homo sapiens.
With MVDYIVEYDYDAVHDDELTIRVGEIIRNVTKLQEEGWLEGELNGRRGMFPDNFVKEIKR [K30T], the abundance fitness was -0.07 ± 0.11.

As to MVDYIVEYDYDAVHDDELTIRVGEIIRNVNKLQEEGWLEGELNGRRGMFPDNFVKEIKR [K30N], the abundance fitness is -0.113 ± 0.16.

Regarding MVDYIVEYDYDAVHDDELTIRVGEIIRNVAKLQEEGWLEGELNGRRGMFPDNFVKEIKR [K30A], the abundance fitness is -0.181 ± 0.13.

Turning to MVDYIVEYDYDAVHDDELTIRVGEIIRNVRKLQEEGWLEGELNGRRGMFPDNFVKEIKR [K30R], the abundance fitness is -0.071 ± 0.068.

Regarding MVDYIVEYDYDAVHDDELTIRVGEIIRNVCKLQEEGWLEGELNGRRGMFPDNFVKEIKR [K30C], the abundance fitness is -0.148 ± 0.12.

As to MVDYIVEYDYDAVHDDELTIRVGEIIRNVLKLQEEGWLEGELNGRRGMFPDNFVKEIKR [K30L], the abundance fitness is -0.191 ± 0.09.

For MVDYIVEYDYDAVHDDELTIRVGEIIRNVGKLQEEGWLEGELNGRRGMFPDNFVKEIKR [K30G], the abundance fitness is -0.127 ± 0.1.

For MVDYIVEYDYDAVHDDELTIRVGEIIRNVQKLQEEGWLEGELNGRRGMFPDNFVKEIKR [K30Q], the abundance fitness is -0.31 ± 0.19.

Consider MVDYIVEYDYDAVHDDELTIRVGEIIRNVSKLQEEGWLEGELNGRRGMFPDNFVKEIKR [K30S], for which the abundance fitness was -0.135 ± 0.095.

In the case of MVDYIVEYDYDAVHDDELTIRVGEIIRNVFKLQEEGWLEGELNGRRGMFPDNFVKEIKR [K30F], the abundance fitness is -0.158 ± 0.14.

Turning to MVDYIVEYDYDAVHDDELTIRVGEIIRNVEKLQEEGWLEGELNGRRGMFPDNFVKEIKR [K30E], the abundance fitness was 0.007 ± 0.18.

As for MVDYIVEYDYDAVHDDELTIRVGEIIRNVMKLQEEGWLEGELNGRRGMFPDNFVKEIKR [K30M], the abundance fitness was found to be 0.018 ± 0.11.

Take MVDYIVEYDYDAVHDDELTIRVGEIIRNVHKLQEEGWLEGELNGRRGMFPDNFVKEIKR [K30H]: the abundance fitness is 0.111 ± 0.19.

For the variant MVDYIVEYDYDAVHDDELTIRVGEIIRNVVKLQEEGWLEGELNGRRGMFPDNFVKEIKR [K30V], the abundance fitness was -0.166 ± 0.13.

For MVDYIVEYDYDAVHDDELTIRVGEIIRNVWKLQEEGWLEGELNGRRGMFPDNFVKEIKR [K30W], the abundance fitness was -0.192 ± 0.091.

With MVDYIVEYDYDAVHDDELTIRVGEIIRNVIKLQEEGWLEGELNGRRGMFPDNFVKEIKR [K30I], the abundance fitness is -0.274 ± 0.12.

In the case of MVDYIVEYDYDAVHDDELTIRVGEIIRNVDKLQEEGWLEGELNGRRGMFPDNFVKEIKR [K30D], the abundance fitness was -0.22 ± 0.18.

For the variant MVDYIVEYDYDAVHDDELTIRVGEIIRNVKALQEEGWLEGELNGRRGMFPDNFVKEIKR [K31A], the abundance fitness turned out to be 0.053 ± 0.11.

On to MVDYIVEYDYDAVHDDELTIRVGEIIRNVKELQEEGWLEGELNGRRGMFPDNFVKEIKR [K31E], for which the abundance fitness was -0.061 ± 0.11.

In the case of MVDYIVEYDYDAVHDDELTIRVGEIIRNVKCLQEEGWLEGELNGRRGMFPDNFVKEIKR [K31C], the abundance fitness worked out at 0.109 ± 0.34.

On to MVDYIVEYDYDAVHDDELTIRVGEIIRKVKKLQEEGWLEGELNGRRGMFPDNFVKEIKR [N28K], for which the abundance fitness is -0.262 ± 0.093.

As for MVDYIVEYDYDAVHDDELTIRVGEIIRGVKKLQEEGWLEGELNGRRGMFPDNFVKEIKR [N28G], the abundance fitness was -0.025 ± 0.083.

For MVDYIVEYDYDAVHDDELTIRVGEIIRLVKKLQEEGWLEGELNGRRGMFPDNFVKEIKR [N28L], the abundance fitness is -0.734 ± 0.11.

Turning to MVDYIVEYDYDAVHDDELTIRVGEIIRHVKKLQEEGWLEGELNGRRGMFPDNFVKEIKR [N28H], the abundance fitness is -0.206 ± 0.14.

For the variant MVDYIVEYDYDAVHDDELTIRVGEIIRSVKKLQEEGWLEGELNGRRGMFPDNFVKEIKR [N28S], the abundance fitness was -0.176 ± 0.076.

Turning to MVDYIVEYDYDAVHDDELTIRVGEIIRWVKKLQEEGWLEGELNGRRGMFPDNFVKEIKR [N28W], the abundance fitness is -0.892 ± 0.28.

MVDYIVEYDYDAVHDDELTIRVGEIIREVKKLQEEGWLEGELNGRRGMFPDNFVKEIKR [N28E]: the abundance fitness is -0.185 ± 0.095.

As to MVDYIVEYDYDAVHDDELTIRVGEIIRVVKKLQEEGWLEGELNGRRGMFPDNFVKEIKR [N28V], the abundance fitness is -0.927 ± 0.14.

Regarding MVDYIVEYDYDAVHDDELTIRVGEIIRFVKKLQEEGWLEGELNGRRGMFPDNFVKEIKR [N28F], the abundance fitness was -0.516 ± 0.12.

MVDYIVEYDYDAVHDDELTIRVGEIIRQVKKLQEEGWLEGELNGRRGMFPDNFVKEIKR [N28Q]: the abundance fitness was -0.15 ± 0.12.

On to MVDYIVEYDYDAVHDDELTIRVGEIIRTVKKLQEEGWLEGELNGRRGMFPDNFVKEIKR [N28T], for which the abundance fitness was -0.615 ± 0.14.

Take MVDYIVEYDYDAVHDDELTIRVGEIIRPVKKLQEEGWLEGELNGRRGMFPDNFVKEIKR [N28P]: the abundance fitness was -0.909 ± 0.23.

In the case of MVDYIVEYDYDAVHDDELTIRVGEIIRDVKKLQEEGWLEGELNGRRGMFPDNFVKEIKR [N28D], the abundance fitness worked out at 0.04 ± 0.091.

Regarding MVDYIVEYDYDAVHDDELTIRVGEIIRNEKKLQEEGWLEGELNGRRGMFPDNFVKEIKR [V29E], the abundance fitness is -0.251 ± 0.24.

Regarding MVDYIVEYDYDAVHDDELTIRVGEIIRNTKKLQEEGWLEGELNGRRGMFPDNFVKEIKR [V29T], the abundance fitness is -0.378 ± 0.2.

Consider MVDYIVEYDYDAVHDDELTIRVGEIIRNGKKLQEEGWLEGELNGRRGMFPDNFVKEIKR [V29G], for which the abundance fitness was -0.261 ± 0.11.

As to MVDYIVEYDYDAVHDDELTIRVGEIIRNMKKLQEEGWLEGELNGRRGMFPDNFVKEIKR [V29M], the abundance fitness was -0.883 ± 0.43.

As for MVDYIVEYDYDAVHDDELTIRVGEIIRNLKKLQEEGWLEGELNGRRGMFPDNFVKEIKR [V29L], the abundance fitness is -0.62 ± 0.22.

Take MVDYIVEYDYDAVHDDELTIRVGEIIRNSKKLQEEGWLEGELNGRRGMFPDNFVKEIKR [V29S]: the abundance fitness is -0.448 ± 0.2.

For the variant MVDYIVEYDYDAVHDDELTIRVGEIIRNIKKLQEEGWLEGELNGRRGMFPDNFVKEIKR [V29I], the abundance fitness is -0.441 ± 0.23.

For the variant MVDYIVEYDYDAVHDDELTIRVGEIIRNCKKLQEEGWLEGELNGRRGMFPDNFVKEIKR [V29C], the abundance fitness is -0.167 ± 0.46.

With MVDYIVEYDYDAVHDDELTIRVGEIIRNAKKLQEEGWLEGELNGRRGMFPDNFVKEIKR [V29A], the abundance fitness was -0.069 ± 0.1.

Consider MVDYIVEYDYDAVHDDELTIRVGEIIRNKKKLQEEGWLEGELNGRRGMFPDNFVKEIKR [V29K], for which the abundance fitness is -0.999 ± 0.28.

Regarding MVDYIVEYDYDAVHDDELTIRVGEIIRNDKKLQEEGWLEGELNGRRGMFPDNFVKEIKR [V29D], the abundance fitness was -0.866 ± 0.35.

Consider MVDYIVEYDYDAVHDDELTIRVGEIIRNRKKLQEEGWLEGELNGRRGMFPDNFVKEIKR [V29R], for which the abundance fitness was -1.04 ± 0.31.
